Results published in US9658208B2, “Methods and G proteins for screening and identifying ligands of G protein-coupled receptors” (Fred Hutchinson Cancer Research Center, priority 2011, dated 2017).

Columns and labels:
[1] = system: nine GPCRs that do not bind to Gαs (serotonin 1b, neuropeptide Y1, leukotriene B4, dopamine D4, GNRH, UDP, calcium-sensing, T1R2/T1R3); test: CRE-SEAP reporter gene assay, coupling of chimeric G proteins with a variety of GPCRs; assay type: cell-based; details: HEK-293 cells, GPCR ligand 48 hours
Text: (§1) The GPCRs examined were those that couple with Gαi/Gαo subunits (serotonin 1b, neuropeptide Y1, leukotriene B4, and dopamine D4), Gαq (GNRH, UDP, and calcium-sensing receptors), and the orphan mammalian sweet taste receptor complex (T1R2 and T1R3) with unknown coupling preference. The Gαs-based chimeric G proteins examined in this example were Gαs-Gαi-5, Gαs-Gαt-13 (SEQ ID NO: 3), Gαs-Gαo-13 (SEQ ID NO: 4), Gαs-Gαi-13 (SEQ ID NO: 5), Gαs-Gαz-6 (SEQ ID NO: 18), Gαs-Gα15-13 (SEQ ID NO: 7), Gαs-Gαk-5 (SEQ ID NO: 2), and Gαs-Gαq-13 (SEQ ID NO: 8). The chimeric G protein constructs were prepared as described herein. For the coupling assay, HEK-293 cells were cotransfected with each of the Gαs-based chimeric G protein constructs of interest together with the CRE-SEAP reporter gene construct and a cDNA encoding the GPCR to be tested. The transfected cells were cultured in the presence or absence of a GPCR ligand and then assayed for SEAP activity.
Chimeric G protein cloning: An insert containing rat Gαs cDNA was cut out using the restriction enzymes SaII and HinDIII, and ligated into pcDNA3.1(−) cut with XhoI and HinDIII. The chimeric G proteins with the desired C-terminal amino acid substitutions from the Gαi, Gαt, Gαo, Gαz, Gα15, Gαk, and Gαq were prepared by PCR using Gαs as a template. More specifically, Gαs was PCR amplified between an internal EcoRI site and the stop codon, with a 3′ HinDIII placed immediately after the stop codon. A different 3′ oligonucleotide was used for each Gαs chimera and contained a 39 bp sequence that encoded the substituted amino acids at the C-terminus selected from the donor Gα subunit.
GPCR cloning: Mouse 5-HT1B, mouse dopamine D4, human GNRH, and human neuropeptide Y1 receptors were cloned by PCR from cDNA templates (ATCC) and ligated into pcDNA 3.1(−) (Invitrogen) for expression in mammalian cells. […]
(§2) Following transfection, the cells were maintained for 48 hours in 200 ul serum free media containing GPCR ligand. […] Fluorescence was then measured using a CytoFluor 4000 multi well plate reader (Applied Biosystems).

[2] = biological target: T1, dopamine D4 receptor (Mus musculus, UniProt P51436); test: CRE-SEAP reporter gene assay, coupling with dopamine D4; assay type: cell-based; details: HEK-293 cells, 1 uM dopamine
T1 construct: expressed in transfected cells; host or cells: HEK-293
T1 sequence (P51436 1-387): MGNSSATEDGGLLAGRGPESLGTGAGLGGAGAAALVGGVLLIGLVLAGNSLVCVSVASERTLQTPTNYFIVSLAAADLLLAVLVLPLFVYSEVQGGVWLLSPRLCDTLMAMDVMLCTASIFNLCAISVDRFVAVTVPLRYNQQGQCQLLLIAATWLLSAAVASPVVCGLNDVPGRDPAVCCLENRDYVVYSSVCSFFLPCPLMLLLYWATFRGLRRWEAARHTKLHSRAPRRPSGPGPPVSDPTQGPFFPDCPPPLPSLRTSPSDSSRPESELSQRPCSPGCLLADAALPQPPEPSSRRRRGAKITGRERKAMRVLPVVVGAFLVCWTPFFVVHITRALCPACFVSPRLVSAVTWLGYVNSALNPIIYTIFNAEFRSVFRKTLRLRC
Text: as §1
Chimeric G protein cloning: An insert containing rat Gαs cDNA was cut out using the restriction enzymes SaII and HinDIII, and ligated into pcDNA3.1(−) cut with XhoI and HinDIII. […]
as §2

B1: Gαs-Gαt-13: Gαs-based chimeric G protein, final 13 C-terminal amino acids substituted with those of Gαt (protein)
chain: MGCLGNSKTEDQRNEEKAQREANKKIEKQLQKDKQVYRATHRLLLLGAGESGKSTIVKQMRILHVNGFNGEGGEEDVPDYASNSDGEKATKVQDIKNNLKEAIETIVAAMSNLVPPVELANPENQFRVDYILSVMNVPNFDFPPEFYEHAKALWEDEGVRACYERSNEYQLIDCAQYFLDKIDVIKQADYVPSDQDLLRCRVLTSGIFETKFQVDKVNFHMFDVGGQRDERRKWIQCFNDVTAIIFVVASSSYNMVIREDNQTNRLQEALNLFKSIWNNRWLRTISVILFLNKQDLLAEKVLAGKSKIEDYFPEFARYTTPEDATPEPGEDPRVTRAKYFIRDEFLRISTASGDGRHYCYPHFTCAVDTENIRRVFNDCRDIIIKENLKDCGLF
modifications: Chimeric protein
notes: Gαs-based chimeric G protein, final 13 C-terminal amino acids substituted with those of Gαt
For B1, which “GPCRs tested that coupled to the chimera” value [1] is on record?
Its value is “All but one”.

What about the “coupling with dopamine D4 receptor” value [2] of the same molecule?
The value was “did not couple”.
